Tests used:
hCD3 (human CD3 antigen) = hCD3 (human CD3 antigen) (human, UniProt P07766 23-126); assay: ELISA, plate-coated hCD3
Experimental: The activity of the prepared humanized antibodies was assessed by ELISA as follows: hCD3 (human CD3 antigen) was diluted to 0.5 g/mL using a coating solution and then added to a 96-well plate at 100 μL/well, and the plate was incubated overnight at 4° C. The plate was washed with PBST. Then 200 µL of a blocking solution was added to each well, and blocking was performed at a temperature of 37° C. for 2 h. The plate was washed with PBST. Then diluted antibodies (the initial concentration was 40 nM, and serial dilution was performed in a 1:6 ratio) were added at 100 L/well, and the plate was incubated at a temperature of 37° C. for 2 h. The plate was washed with PBST. Then an HRP-labeled goat anti-human IgG was added at 100 L/well, and the plate was incubated at 37° C. for 1 h. The plate was washed with PBST, and TMB was added at 100 L/well. Color development was performed at 37° C. for 10-20 min, and 50 µL of 2 M H₂SO₄ was added to each well to stop the reaction. Readings were taken at 450 nm.

[1] = target: T1, CD3 on Jurkat cells and on human T cells (human, UniProt P07766 23-207); assay: flow cytometry on Jurkat cells
T1 construct: whole, on cells; also called CD3 end; CD3 antigen
Experimental: (§1) Then diluted antibodies with different concentrations were added. The cells were incubated at 4° C. for 0.5 h, centrifuged at 1200 rpm for 3-5 min, and washed with a FACS buffer. Then a goat anti-human IgG secondary antibody (manufacturer: Abcam, ab98596) was added at 100 L/well. The cells were incubated at 4° C. for 0.5 h, centrifuged at 1200 rpm for 3-5 min, washed with a FACs buffer, and resuspended in 50 μL of a FACs buffer, and assays were performed using a flow cytometer.

CD3 on 293T-CD3 cells = assay: flow cytometry on 293T-CD3 cells
Chain of CD3 on 293T-CD3 cells (chain, as listed by the source): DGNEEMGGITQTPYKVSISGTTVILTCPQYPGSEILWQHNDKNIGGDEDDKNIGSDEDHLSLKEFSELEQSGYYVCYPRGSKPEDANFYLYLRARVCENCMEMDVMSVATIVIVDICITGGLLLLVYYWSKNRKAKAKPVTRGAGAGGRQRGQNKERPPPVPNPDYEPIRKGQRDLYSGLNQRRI
Experimental: as §1

Chain of hCD3 (human CD3 antigen) (P07766 23-126): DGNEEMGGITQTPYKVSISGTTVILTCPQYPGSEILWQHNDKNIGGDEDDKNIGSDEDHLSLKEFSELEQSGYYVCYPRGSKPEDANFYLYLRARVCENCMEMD
T1 sequence (P07766 23-207): as the sequence (chain, as listed by the source) above

Row | Binder | EC50 (hCD3 (human CD3 antigen)) [nM] | EC50 [1] [nM] | EC50 (CD3 on 293T-CD3 cells) [nM]
1 | CD3 Ab07 (antibody, human IgG1, kappa, V domains shown, also called humanized anti-CD3 monoclonal antibody) VH: EVQLVESGGGLVQPGGSLRLSCAASGFTFNTYAMNWVRQAPGKGLEWVARIRSKYNNYATYYADSVKDRFTISRDDSKNILYLQMNSLKTEDTAVYYCVRHGNFGNSYVSWFAYWGQGTLVTVSA VL: QAVVTQEPSLTVSPGGTVTLTCRSSTGAVTTSNYANWVQQKPGQAPRGLIGGTNKRAPWTPARFSGSLLGGKAALTLSGAQTEDEAEYYCALWYSNLWVFGGGTKLTVLR | 0.0129 | 2.42 | 9.02
2 | CD3 Ab01 (antibody, human IgG1, kappa, V domains shown, also called humanized anti-CD3 monoclonal antibody) VH: EVQLVESGGGLVQPGGSLRLSCAASGFTFNTYAMNWVRQAPGKGLEWVARIRSKYNNYATYYADSVKDRFTISRDDSKNSLYLQMNSLKTEDTAVYYCVRHGNFGNSYVSWFAYWGQGTLVTVSA VL: QAVVTQEPSLTVSPGGTVTLTCRSSTGAVTTSNYANWVQQKPGQAPRGLIGGTNKRAPWTPARFSGSLLGGKAALTLSGAQPEDEAEYYCALWYSNLWVFGGGTKLTVLR | 0.0096 | 3.3 | 22.6
3 | CD3 Ab03 (antibody, human IgG1, kappa, V domains shown, also called humanized anti-CD3 monoclonal antibody) VH: EVQLVESGGGLVQPGGSLRLSCAASGFTFNTYAMNWVRQAPGKGLEWVARIRSKYNNYATYYADSVKDRFTISRDDSKNSLYLQMNSLKTEDTAVYYCVRHGNFGNSYVSWFAYWGQGTLVTVSA VL: QAVVTQEPSLTVSPGGTVTLTCRSSTGAVTTSNYANWVQQKPGQAPRGLIGGTNKRAPWTPARFSGSLLGGKAALTITGAQTEDEAEYYCALWYSNLWVFGGGTKLTVLR | 0.0042 | 2.28 | 10.1
4 | CD3 Ab05 (antibody, human IgG1, kappa, V domains shown, also called humanized anti-CD3 monoclonal antibody) VH: EVQLVESGGGLVQPGGSLRLSCAASGFTFNTYAMNWVRQAPGKGLEWVARIRSKYNNYATYYADSVKDRFTISRDDSKNSLYLQMNSLKTEDTAVYYCVRHGNFGNSYVSWFAYWGQGTLVTVSA VL: QAVVTQEPSLTVSPGGTVTLTCRSSTGAVTTSNYANWVQEKPGQAPRGLIGGTNKRAPWVPARFSGSLLGDKAALTLSGAQTEDEAEYYCALWYSNLWVFGGGTKLTVLR | 0.0099 | 1.02 | 4.27
5 | CD3 Ab12 (antibody, human IgG1, kappa, V domains shown, also called humanized anti-CD3 monoclonal antibody) VH: EVQLVESGGGLVQPGGSLRLSCAASGFTFNTYAMNWVRQAPGKGLEWVARIRSKYNNYATYYADSVKDRFTISRDDSKNILYLQMNSLKTEDTAMYYCVRHGNFGNSYVSWFAYWGQGTLVTVSA VL: QAVVTQEPSLTVSPGGTVTLTCRSSTGAVTTSNYANWVQQKPGQAPRGLIGGTNKRAPWTPARFSGSLLGGKAALTLSGAQTEDEAEYYCALWYSNLWVFGGGTKLTVLR | 0.0095 | 3.52 | 15.8
6 | CD3 Ab08 (antibody, human IgG1, kappa, V domains shown, also called humanized anti-CD3 monoclonal antibody) VH: EVQLVESGGGLVQPGGSLRLSCAASGFTFNTYAMNWVRQAPGKGLEWVARIRSKYNNYATYYADSVKDRFTISRDDSKNILYLQMNSLKTEDTAVYYCVRHGNFGNSYVSWFAYWGQGTLVTVSA VL: QAVVTQEPSLTVSPGGTVTLTCRSSTGAVTTSNYANWVQQKPGQAPRGLIGGTNKRAPWTPARFSGSLLGGKAALTITGAQTEDEAEYYCALWYSNLWVFGGGTKLTVLR | 0.0116 | 1.82 | 4.24
7 | CD3 Ab13 (antibody, human IgG1, kappa, V domains shown, also called humanized anti-CD3 monoclonal antibody) VH: EVQLVESGGGLVQPGGSLRLSCAASGFTFNTYAMNWVRQAPGKGLEWVARIRSKYNNYATYYADSVKDRFTISRDDSKNILYLQMNSLKTEDTAMYYCVRHGNFGNSYVSWFAYWGQGTLVTVSA VL: QAVVTQEPSLTVSPGGTVTLTCRSSTGAVTTSNYANWVQQKPGQAPRGLIGGTNKRAPWTPARFSGSLLGGKAALTITGAQTEDEAEYYCALWYSNLWVFGGGTKLTVLR | 0.0099 | 3.19 | 12.4
8 | CD3 Ab11 (antibody, human IgG1, kappa, V domains shown, also called humanized anti-CD3 monoclonal antibody) VH: EVQLVESGGGLVQPGGSLRLSCAASGFTFNTYAMNWVRQAPGKGLEWVARIRSKYNNYATYYADSVKDRFTISRDDSKNILYLQMNSLKTEDTAMYYCVRHGNFGNSYVSWFAYWGQGTLVTVSA VL: QAVVTQEPSLTVSPGGTVTLTCRSSTGAVTTSNYANWVQQKPGQAPRGLIGGTNKRAPWTPARFSGSLLGGKAALTLSGAQPEDEAEYYCALWYSNLWVFGGGTKLTVLR | 0.0118 | 4.45 | 21.6
9 | CD3 Ab14 (antibody, human IgG1, kappa, V domains shown, also called humanized anti-CD3 monoclonal antibody) VH: EVQLVESGGGLVQPGGSLRLSCAASGFTFNTYAMNWVRQAPGKGLEWVARIRSKYNNYATYYADSVKDRFTISRDDSKNILYLQMNSLKTEDTAMYYCVRHGNFGNSYVSWFAYWGQGTLVTVSA VL: QAVVTQEPSLTVSPGGTVTLTCRSSTGAVTTSNYANWVQQKPGQAPRGLIGGTNKRAPWVPARFSGSLLGDKAALTLSGAQTEDEAEYYCALWYSNLWVFGGGTKLTVLR | 0.0087 | 1.14 | 5.73
10 | CD3 Ab10 (antibody, human IgG1, kappa, V domains shown, also called humanized anti-CD3 monoclonal antibody) VH: EVQLVESGGGLVQPGGSLRLSCAASGFTFNTYAMNWVRQAPGKGLEWVARIRSKYNNYATYYADSVKDRFTISRDDSKNILYLQMNSLKTEDTAVYYCVRHGNFGNSYVSWFAYWGQGTLVTVSA VL: QAVVTQEPSLTVSPGGTVTLTCRSSTGAVTTSNYANWVQEKPGQAPRGLIGGTNKRAPWVPARFSGSLLGDKAALTLSGAQTEDEAEYYCALWYSNLWVFGGGTKLTVLR | 0.002 | 0.784 | 2.44
11 | CD3 Ab06 (antibody, human IgG1, kappa, V domains shown, also called humanized anti-CD3 monoclonal antibody) VH: EVQLVESGGGLVQPGGSLRLSCAASGFTFNTYAMNWVRQAPGKGLEWVARIRSKYNNYATYYADSVKDRFTISRDDSKNILYLQMNSLKTEDTAVYYCVRHGNFGNSYVSWFAYWGQGTLVTVSA VL: QAVVTQEPSLTVSPGGTVTLTCRSSTGAVTTSNYANWVQQKPGQAPRGLIGGTNKRAPWTPARFSGSLLGGKAALTLSGAQPEDEAEYYCALWYSNLWVFGGGTKLTVLR | 0.0126 | 3.31 | 13
12 | CD3 Ab09 (antibody, human IgG1, kappa, V domains shown, also called humanized anti-CD3 monoclonal antibody) VH: EVQLVESGGGLVQPGGSLRLSCAASGFTFNTYAMNWVRQAPGKGLEWVARIRSKYNNYATYYADSVKDRFTISRDDSKNILYLQMNSLKTEDTAVYYCVRHGNFGNSYVSWFAYWGQGTLVTVSA VL: QAVVTQEPSLTVSPGGTVTLTCRSSTGAVTTSNYANWVQQKPGQAPRGLIGGTNKRAPWVPARFSGSLLGDKAALTLSGAQTEDEAEYYCALWYSNLWVFGGGTKLTVLR | 0.008 | 0.862 | 4.4
13 | CD3 Ab04 (antibody, human IgG1, kappa, V domains shown, also called humanized anti-CD3 monoclonal antibody) VH: EVQLVESGGGLVQPGGSLRLSCAASGFTFNTYAMNWVRQAPGKGLEWVARIRSKYNNYATYYADSVKDRFTISRDDSKNSLYLQMNSLKTEDTAVYYCVRHGNFGNSYVSWFAYWGQGTLVTVSA VL: QAVVTQEPSLTVSPGGTVTLTCRSSTGAVTTSNYANWVQQKPGQAPRGLIGGTNKRAPWVPARFSGSLLGDKAALTLSGAQTEDEAEYYCALWYSNLWVFGGGTKLTVLR | 0.0068 | 1.18 | 5.23
14 | CD3 Ab02 (antibody, human IgG1, kappa, V domains shown, also called humanized anti-CD3 monoclonal antibody) VH: EVQLVESGGGLVQPGGSLRLSCAASGFTFNTYAMNWVRQAPGKGLEWVARIRSKYNNYATYYADSVKDRFTISRDDSKNSLYLQMNSLKTEDTAVYYCVRHGNFGNSYVSWFAYWGQGTLVTVSA VL: QAVVTQEPSLTVSPGGTVTLTCRSSTGAVTTSNYANWVQQKPGQAPRGLIGGTNKRAPWTPARFSGSLLGGKAALTLSGAQTEDEAEYYCALWYSNLWVFGGGTKLTVLR | 0.0117 | 2.64 | 12.3

— patent US20250304690A1 (HANGZHOU VIROMAB BIOTECH, published 2025)
